Data published in patent US20240150440A1 (LUMEN BIOSCIENCE, published 2024).

Experiments:
[1] = molecular target: T1, recombinant SARS-CoV-2 RBD with C-terminal AviTag (SARS-CoV-2, UniProt P0DTC2 319-541); test: ELISA, competition with coated ACE2-Fc for RBD [Cont. 3]
[2] = molecular target: SARS-CoV-2 spike protein on pseudotyped lentivirus (Wuhan Reference Pseudovirus) (SARS-CoV-2, UniProt P0DTC2 14-1273); test: cell-based or functional assay
[3] = molecular target: T1, recombinant SARS-CoV-2 RBD with …; test: BLI, biotinylated RBD on streptavidin biosensors; OR: over-range [Cont. 3]

B1: PP828 MBP-R5C-B2-H6 (VHH)
VHH: QVQLVESGGGLVQPGGSLRLSCAASGSIFSLNWVHWFRQAPGKSREGVASINSGGHADYSDSVKGRFTISRDNAKNTVYLQMNSLKPEDTAVYYCAAGPYGAYNFNSWGQGTQVTVSS
notes: Form: Monomer
[1]
  IC50: 373 nM
[2]
  infectivity % under 10 ug/mL VHH treatment: 73.4%
[3]
  Kd: ~1370 nM
